Consider one substance from patent US20190017043A1.

For the experiment, the target named is MBP-Z-N6K (Z-domain protein with Asn6 mutated to Lys, fused with maltose binding protein) [MBP: P0AEX9]. The experiment can be described thus: covalent protein-protein cross-linking after sodium periodate treatment, 4 hours, SDS-PAGE.

“AFB-D36DOPA (ZSPA affibody with L-DOPA genetically incorporated at position 36) (designed binder)” showed a cross-linked products of 70 to 75%.
